How the values were obtained:
[1] = biological target: T1, AVI-tagged DOK3(1–330 aa) (UniProt Q7L591 1-330); experiment: BLI
T1 sequence (looked up): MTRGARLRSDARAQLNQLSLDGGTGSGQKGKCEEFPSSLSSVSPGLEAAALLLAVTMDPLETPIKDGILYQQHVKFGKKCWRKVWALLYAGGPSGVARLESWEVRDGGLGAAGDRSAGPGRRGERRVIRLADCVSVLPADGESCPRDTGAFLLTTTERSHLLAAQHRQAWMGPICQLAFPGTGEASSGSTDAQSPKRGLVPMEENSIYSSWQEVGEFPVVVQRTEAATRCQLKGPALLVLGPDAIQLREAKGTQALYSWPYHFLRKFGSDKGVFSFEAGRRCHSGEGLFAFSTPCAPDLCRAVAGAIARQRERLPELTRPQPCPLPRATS

[2] = biological target: T1, AVI-tagged DOK3(1–330 aa); experiment: BLI; remark: listed apart in the source

KD with SAB [1]: 1.77 µM
Kd [2]: 15.5 µM
B1: His-PRDX1 recombinant protein (WT, 1-199 aa) (natural protein, UniProt Q06830 1-199, looked up)
chain: MSSGNAKIGHPAPNFKATAVMPDGQFKDISLSDYKGKYVVFFFYPLDFTFVCPTEIIAFSDRAEEFKKLNCQVIGASVDSHFCHLAWVNTPKKQGGLGPMNIPLVSDPKRTIAQDYGVLKADEGISFRGLFIIDDKGILRQITVNDLPVGRSVDETLRLVQAFQFTDKHGEVCPAGWKPGSDTIKPDVQKSKEYFSKQK

Reference: article PMC12399193 (Acta Pharmaceutica Sinica. B, 2025)
